Reference: PMC12720113, “The binding mechanism of a novel ferrous ion chelating peptide from chicken blood hemoglobin and the bioavailability of the chelate” (Food Chemistry: X, 2025)

Test system: Caco-2 cells
Assay: Caco-2 cell viability assay (MTT)
Format: cell-based
Settings: 24 h, 490 nm, means ± SEM
Experimental: Caco-2 cell viability assay was conducted on […]-Fe according to the method of [Wu et al. (2019)]. And lactoferrin was chosen as an experimental control. When the cell fusion rate was close to 80 %, the cells were dissociated and passaged using the trypsin-EDTA mixed digest. Cultivate the 23rd generation of cells in the logarithmic growth phase at 37 °C and 5 % CO₂ for 24 h. Then, a gradient concentration of […]-Fe and Ac-[…]-Fe was added to the wells of the experimental group, and all the samples were incubated for 24 h. After incubation, 20 μL of MTT reagent was added to each well. After 2 h of reaction, 150 μL of DMSO was added and agitated for 10 min. The absorbance values at 490 nm were measured to reflect cell activity levels. Cell relative activity (%) was calculated:(3) Relative cell viability%=As−Ab/Ac−Ab×100 where: As represents the absorbance value of the sample treatment, Ab represents the absorbance value without cells, and Ac represents the absorbance value without sample treatment.

B1: lactoferrin (protein, UniProt P24627 20-708, looked up)
Lactotransferrin: APRKNVRWCTISQPEWFKCRRWQWRMKKLGAPSITCVRRAFALECIRAIAEKKADAVTLDGGMVFEAGRDPYKLRPVAAEIYGTKESPQTHYYAVAVVKKGSNFQLDQLQGRKSCHTGLGRSAGWIIPMGILRPYLSWTESLEPLQGAVAKFFSASCVPCIDRQAYPNLCQLCKGEGENQCACSSREPYFGYSGAFKCLQDGAGDVAFVKETTVFENLPEKADRDQYELLCLNNSRAPVDAFKECHLAQVPSHAVVARSVDGKEDLIWKLLSKAQEKFGKNKSRSFQLFGSPPGQRDLLFKDSALGFLRIPSKVDSALYLGSRYLTTLKNLRETAEEVKARYTRVVWCAVGPEEQKKCQQWSQQSGQNVTCATASTTDDCIVLVLKGEADALNLDGGYIYTAGKCGLVPVLAENRKSSKHSSLDCVLRPTEGYLAVAVVKKANEGLTWNSLKDKKSCHTAVDRTAGWNIPMGLIVNQTGSCAFDEFFSQSCAPGADPKSRLCALCAGDDQGLDKCVPNSKEKYYGYTGAFRCLAEDVGDVAFVKNDTVWENTNGESTADWAKNLNREDFRLLCLDGTRKPVTEAQSCHLAVAPNHAVVSRSDRAAHVKQVLLHQQALFGKNGKNCPDKFCLFKSETKNLLFNDNTECLAKLGGRPTYEEYLGTEYVTAIANLKKCSTSPLLEACAFLTR
notes: conventional iron supplement, experimental control
Relative vitality of cells (%) (Caco-2, 0.125 mg/mL): 92.86 ± 1.03%
Relative vitality of cells (%) (Caco-2, 0.25 mg/mL): 81.43 ± 0.94%
Relative vitality of cells (%) (Caco-2, 0.5 mg/mL): 77.76 ± 1.27%
Relative vitality of cells (%) (Caco-2, 1 mg/mL): 74.83 ± 0.84%
Relative vitality of cells (%) (Caco-2, 2 mg/mL): 66.90 ± 1.42%
